B1: CPEB3 Ribozyme (parent)
chain: GGGGGCCACAGCAGAAGCGUUCACGUCGCGGCCCCUGUCAGAUUCUGGUGAAUCUGCGAAUUCUGCUGU

The data set covers variants of B1. As to the kind of experiment: self-cleavage, relative activity (ratio to wild type); higher = more cleavage; co-transcriptional.
Turning to GGGGGCCACAGCAGAAGCGCUCACGUCGCGGCCCCUGUCAGAUUCUGGUGAAUCUGCGACUUCUGCUGU [U20C A60C], the self-cleavage came to 0.142.
GGGGGCCACAGCAGAAGCGCUCACGUCGCGGCCCCUGUCAGAUUCUGGUGAAUCUGCGAUUUCUGCUGU [U20C A60U]: the self-cleavage stood at 0.208.
Then GGGGGCCACAGCAGAAGCGAUCACGUCGCGGCCCCUGUCAGAUUCUGGUGAAUCUGCGAACUCUGCUGU [U20A U61C], with 0.137; and GGGGGCCACAGCAGAAGCGAUCACGUCGCGGCCCCUGUCAGAUUCUGGUGAAUCUGCGAAGUCUGCUGU [U20A U61G], with 0.137.
For GGGGGCCACAGCAGAAGCGAUCACGUCGCGGCCCCUGUCAGAUUCUGGUGAAUCUGCGAAAUCUGCUGU [U20A U61A], the self-cleavage was 0.123.
On to GGGGGCCACAGCAGAAGCGAUCACGCCGCGGCCCCUGUCAGAUUCUGGUGAAUCUGCGAAUUCUGCUGU [U20A U26C], for which the self-cleavage worked out at 0.106.
Consider GGGGGCCACAGCAGAAGCGAUCACGGCGCGGCCCCUGUCAGAUUCUGGUGAAUCUGCGAAUUCUGCUGU [U20A U26G], for which the self-cleavage came to 0.182.
Then GGGGGCCACAGCAGAAGCGCUUACGUCGCGGCCCCUGUCAGAUUCUGGUGAAUCUGCGAAUUCUGCUGU [U20C C22U], with 0.229; and GGGGGCCACAGCAGAAGCGCUGACGUCGCGGCCCCUGUCAGAUUCUGGUGAAUCUGCGAAUUCUGCUGU [U20C C22G], with 0.214.
On to GGGGGCCACAGCAGAAGCGCUCACGUCGCGGCCCCUGUCAGAUUCUGGUGAAUCUGCGUAUUCUGCUGU [U20C A59U], for which the self-cleavage was found to be 0.15.
Then GGGGGCCACAGCAGAAGCGCUCACGUCGCGGCCCCUGUCAGAUUCUGGUGAAUCUGCGGAUUCUGCUGU [U20C A59G], with 0.277; and GGGGGCCACAGCAGAAGCGCUCACGUCGCGGCCCCUGUCAGAUUCUGGUGAAUCUGCGCAUUCUGCUGU [U20C A59C], with 0.124; and GGGGGCCACAGCAGAAGCGCUCACGUCGCGGCCCCUGUCAGAUUCUGGUGAUUCUGCGAAUUCUGCUGU [U20C A52U], with 0.109.
Then GGGGGCCACAGCAGAAGCGCUCACGUCGCGGCCCCUGUCAGAUUCUGGUGACUCUGCGAAUUCUGCUGU [U20C A52C], with 0.181.
Then GGGGGCCACAGCAGAAGCGAUCACGUCGCGGCCCCUGUCAGAUCCUGGUGAAUCUGCGAAUUCUGCUGU [U20A U44C], with 0.139.
Turning to GGGGGCCACAGCAGAAGCGAUCACGUCGCGGCCCCUGUCAGAUGCUGGUGAAUCUGCGAAUUCUGCUGU [U20A U44G], the self-cleavage was determined as 0.204.
Then GGGGGCCACAGCAGAAGCGAUCACGUCGCGGCCCCUGUCAGAUACUGGUGAAUCUGCGAAUUCUGCUGU [U20A U44A], with 0.15; and GGGGGCCACAGCAGAAGCGCUCACGUCGCGGCCCGUGUCAGAUUCUGGUGAAUCUGCGAAUUCUGCUGU [U20C C35G], with 0.129.
Then GGGGGCCACAGCAGAAGCGCUCACGUCGCGGCCCUUGUCAGAUUCUGGUGAAUCUGCGAAUUCUGCUGU [U20C C35U], with 0.145; and GGGGGCCACAGCAGAAGCGCUCACGUCGCGGCCCAUGUCAGAUUCUGGUGAAUCUGCGAAUUCUGCUGU [U20C C35A], with 0.169; and GGGGGCCACAGCAGAAGCGCUCACGUCGCGGCCCCUGUCAGAUUCUGGUGAAUCUGCGAAUUCUGAUGU [U20C C66A], with 0.204.
For GGGGGCCACAGCAGAAGCGCUCACGUGGCGGCCCCUGUCAGAUUCUGGUGAAUCUGCGAAUUCUGCUGU [U20C C27G], the self-cleavage was 0.136.
Then GGGGGCCACAGCAGAAGCGCUCACGUUGCGGCCCCUGUCAGAUUCUGGUGAAUCUGCGAAUUCUGCUGU [U20C C27U], with 0.114; and GGGGGCCACAGCAGAAGCGCUCACGUCGCGGCCCCUGUCAGAUUCUGGUGAAUCUGGGAAUUCUGCUGU [U20C C57G], with 0.261.
Then GGGGGCCACAGCAGAAGCGAUCACGUCGCGGCCCCUGUCAGAUUCUGGUGAAUCUGCGAAUUCUGCUCU [U20A G68C], with 0.253; and GGGGGCCACAGCAGAAGCGAUCACGUCGCGGCCCCUGUCAGAUUCUGGUGAAUCUGCGAAUUCUGCUAU [U20A G68A], with 0.196; and GGGGGCCACAGCAGAAGCGAUCACGUCGCGGCCCCUGUCAGAUUCUGGUGAAUCUGCGAAUUCUGCUUU [U20A G68U], with 0.142.
Consider GGGGGCCACAGCAGAAGCGAUCACGUCGCGGCCCCUGUCAGAUUCGGGUGAAUCUGCGAAUUCUGCUGU [U20A U46G], for which the self-cleavage worked out at 0.128.
As for GGGGGCCACAGCAGAAGCGAUCACGUCGCGGCCCCUGUCAGAUUCAGGUGAAUCUGCGAAUUCUGCUGU [U20A U46A], the self-cleavage was found to be 0.216.
Then GGGGGCCACAGCAGAAGCGAUCACGUCGCGGCCCCUGUCAGAUUCCGGUGAAUCUGCGAAUUCUGCUGU [U20A U46C], with 0.0817; and GGGGGCCACAGCAGAAGCGCUCACGUCGCGGCCCCUGUCGGAUUCUGGUGAAUCUGCGAAUUCUGCUGU [U20C A40G], with 0.212.
As to GGGGGCCACAGCAGAAGCGCUCACGUCGCGGCCUCUGUCAGAUUCUGGUGAAUCUGCGAAUUCUGCUGU [U20C C34U], the self-cleavage came out at 0.13.
As to GGGGGCCACAGCAGAAGCGCUCACGUCGCGGCCGCUGUCAGAUUCUGGUGAAUCUGCGAAUUCUGCUGU [U20C C34G], the self-cleavage is 0.139.
For GGGGGCCACAGCAGAAGCGCUCACGUCGCGGCCACUGUCAGAUUCUGGUGAAUCUGCGAAUUCUGCUGU [U20C C34A], the self-cleavage was determined as 0.176.
Regarding GGGGGCCACAGCAGAAGCGAUCACGUCGCGGCCCCUGUCAGAUUCUGGAGAAUCUGCGAAUUCUGCUGU [U20A U49A], the self-cleavage was determined as 0.125.
Then GGGGGCCACAGCAGAAGCGCUCACGUCGCGGCCCCUGUCAGAUUCUGGUGGAUCUGCGAAUUCUGCUGU [U20C A51G], with 0.272; and GGGGGCCACAGCAGAAGCGAUCACGUCGCGGCCCCUGUCAGAUUCUGGUGAACCUGCGAAUUCUGCUGU [U20A U53C], with 0.154.
In the case of GGGGGCCACAGCAGAAGCGAUCACGUCGCGGCCCCUGUCAGAUUCUGGUGAAACUGCGAAUUCUGCUGU [U20A U53A], the self-cleavage amounted to 0.0892.
Then GGGGGCCACAGCAGAAGCGAUCACGUCGCGGCCCCUGUCAGAUUCUGGUGAAGCUGCGAAUUCUGCUGU [U20A U53G], with 0.136.

The record behind these values is the RNAGym collection of RNA variant scans (doi:10.7554/elife.80360).
